Read-outs that look alike come from different tables or passages of the source.
How the values were obtained:
[1] = biological target: T1, recombinant rat VISTA (His-tagged) (rat, UniProt A0ABK0L5H3 33-192); assay: ELISA, plate coated with rat VISTA
T1 sequence: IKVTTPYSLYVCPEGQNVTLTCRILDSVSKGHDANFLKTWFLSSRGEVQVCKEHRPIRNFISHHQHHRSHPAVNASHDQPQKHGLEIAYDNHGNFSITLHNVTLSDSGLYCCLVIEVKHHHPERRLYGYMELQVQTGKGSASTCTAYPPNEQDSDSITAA

[2] = biological target: T2, recombinant cynomolgus macaque VISTA (His-tagged) (cynomolgus macaque, UniProt A0A7N9IB00 33-194); assay: ELISA, plate coated with cyno VISTA
T2 construct: also called cyno VISTA; cynomolgus monkey VISTA

[3] = biological target: T3, recombinant human VISTA (His-tagged) (human, UniProt Q9H7M9 33-194); assay: ELISA, plate coated with human VISTA
T3 construct: bought soluble protein (Sino Biological); also called hVISTA; human VISTA polypeptide

[4] = biological target: human PD-1 (human, UniProt Q15116 25-167); assay: ELISA, plate coated with the antigen
human PD-1, sequence (Q15116 25-167 limits assumed): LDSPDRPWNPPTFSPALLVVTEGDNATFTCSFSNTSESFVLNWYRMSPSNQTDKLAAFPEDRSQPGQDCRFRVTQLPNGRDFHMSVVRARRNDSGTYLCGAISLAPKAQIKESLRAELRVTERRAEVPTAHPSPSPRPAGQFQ

[5] = biological target: T4, human B7H3 (human, UniProt Q5ZPR3 29-461, limits assumed); assay: ELISA, plate coated with the antigen
T4 construct: also called CD276
T4 sequence (looked up): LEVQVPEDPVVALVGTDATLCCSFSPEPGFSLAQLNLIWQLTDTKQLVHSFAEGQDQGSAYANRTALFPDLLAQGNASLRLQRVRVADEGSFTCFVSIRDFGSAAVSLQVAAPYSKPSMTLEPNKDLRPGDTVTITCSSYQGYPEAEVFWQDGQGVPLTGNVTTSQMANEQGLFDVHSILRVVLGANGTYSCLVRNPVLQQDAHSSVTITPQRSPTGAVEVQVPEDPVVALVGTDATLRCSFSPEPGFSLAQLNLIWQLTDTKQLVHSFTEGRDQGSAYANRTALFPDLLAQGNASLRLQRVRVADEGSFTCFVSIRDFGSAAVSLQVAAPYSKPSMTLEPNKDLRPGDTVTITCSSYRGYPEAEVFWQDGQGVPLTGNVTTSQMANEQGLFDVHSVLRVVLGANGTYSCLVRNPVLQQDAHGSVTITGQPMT

[6] = biological target: T5, human B7H4 (human, UniProt Q7Z7D3 25-258, limits assumed); assay: ELISA, plate coated with the antigen
T5 construct: also called VTCN1
T5 sequence (looked up): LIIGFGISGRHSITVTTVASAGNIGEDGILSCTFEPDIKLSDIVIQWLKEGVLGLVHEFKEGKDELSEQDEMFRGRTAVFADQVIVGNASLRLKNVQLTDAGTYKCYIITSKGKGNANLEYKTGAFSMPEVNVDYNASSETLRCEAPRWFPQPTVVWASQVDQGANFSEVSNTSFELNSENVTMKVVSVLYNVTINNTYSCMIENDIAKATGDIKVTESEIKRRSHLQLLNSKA

[7] = biological target: T6, human B7H6 (human, UniProt Q68D85 25-262); assay: ELISA, plate coated with the antigen
T6 construct: also called NCR3LG1
T6 sequence (looked up): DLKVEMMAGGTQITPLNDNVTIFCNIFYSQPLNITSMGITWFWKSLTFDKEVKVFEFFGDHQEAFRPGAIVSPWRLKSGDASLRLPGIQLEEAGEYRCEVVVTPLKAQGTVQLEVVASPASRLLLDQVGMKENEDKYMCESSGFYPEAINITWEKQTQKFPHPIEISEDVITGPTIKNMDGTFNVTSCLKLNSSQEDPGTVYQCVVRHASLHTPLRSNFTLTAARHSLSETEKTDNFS

[8] = biological target: T7, human B7H7 (human, UniProt Q9UM44 23-344); assay: ELISA, plate coated with the antigen
T7 construct: also called HHLA2
T7 sequence (looked up): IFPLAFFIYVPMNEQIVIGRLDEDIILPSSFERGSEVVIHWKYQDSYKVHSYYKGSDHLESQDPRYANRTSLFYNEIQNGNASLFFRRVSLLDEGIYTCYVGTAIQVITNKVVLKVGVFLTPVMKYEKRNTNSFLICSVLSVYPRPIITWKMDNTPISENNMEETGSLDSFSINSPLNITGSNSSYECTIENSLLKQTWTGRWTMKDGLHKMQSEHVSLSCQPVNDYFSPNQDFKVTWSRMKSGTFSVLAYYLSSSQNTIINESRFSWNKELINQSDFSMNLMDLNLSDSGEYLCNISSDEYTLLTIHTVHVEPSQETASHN

[9] = biological target: human CTLA4 (human, UniProt P16410 36-162); assay: ELISA, plate coated with the antigen
human CTLA4, sequence (P16410 36-162 limits assumed): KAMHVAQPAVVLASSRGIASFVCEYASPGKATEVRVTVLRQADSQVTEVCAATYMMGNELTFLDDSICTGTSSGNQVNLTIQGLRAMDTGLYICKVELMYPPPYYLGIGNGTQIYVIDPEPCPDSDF

[10] = biological target: T3, recombinant human VISTA (His-tagged); assay: ELISA, plate coated with human VISTA; remark: listed apart in the source
[11] = biological target: T8, recombinant mouse VISTA (His-tagged) (mouse, UniProt Q9D659 33-191); assay: ELISA, plate coated with mouse VISTA
T8 construct: also called murine VISTA; mVISTA
T8 sequence (looked up): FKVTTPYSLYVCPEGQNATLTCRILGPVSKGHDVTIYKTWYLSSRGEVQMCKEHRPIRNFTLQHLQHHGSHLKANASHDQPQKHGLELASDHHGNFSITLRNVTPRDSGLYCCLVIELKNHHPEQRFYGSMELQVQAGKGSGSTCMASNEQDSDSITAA

[12] = biological target: T3, recombinant human VISTA (His-tagged); assay: BLI (Octet), 1:1 global fit, His-tagged human VISTA captured
[13] = biological target: T8, recombinant mouse VISTA (His-tagged); assay: BLI (Octet), 1:1 global fit, His-tagged mouse VISTA captured
[14] = biological target: T8, recombinant mouse VISTA (His-tagged); assay: as above; remark: listed apart in the source
[15] = biological target: T3, recombinant human VISTA (His-tagged); assay: ELISA, plate coated with human VISTA; unit nM from the legend paragraph 697
[16] = biological target: T8, recombinant mouse VISTA (His-tagged); assay: ELISA, plate coated with mouse VISTA; unit nM from the legend paragraph 697
[17] = biological target: T3, recombinant human VISTA (His-tagged); assay: ELISA, plate coated with human VISTA; unit nM from the legend paragraph 698
[18] = biological target: T8, recombinant mouse VISTA (His-tagged); assay: ELISA, plate coated with mouse VISTA; unit nM from the legend paragraph 698
[19] = biological target: T9, human PD-L1 (human, UniProt Q9NZQ7 19-239); assay: BLI (Octet), His-tagged human PD-L1 on anti-Penta-HIS biosensor, antibody 500-15.6 nM
T9 construct: captured through a His tag in the BLI experiments; also called hPD-L1; B7H1/PDL-1
T9 sequence (Q9NZQ7 19-239 limits assumed): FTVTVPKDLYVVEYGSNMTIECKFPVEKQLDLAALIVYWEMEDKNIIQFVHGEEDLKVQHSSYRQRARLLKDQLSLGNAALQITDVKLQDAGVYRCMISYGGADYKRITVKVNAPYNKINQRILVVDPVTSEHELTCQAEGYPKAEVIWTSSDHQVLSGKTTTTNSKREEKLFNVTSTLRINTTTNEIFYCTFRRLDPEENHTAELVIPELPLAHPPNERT

[20] = biological target: T10, mouse FcRn (His-tagged, Sino Biological CT009-H08H) (mouse, UniProt Q61559 22-297); assay: BLI summary table, mFcRn, pH 5.8
T10 construct: also called mFcRn
T10 sequence (looked up): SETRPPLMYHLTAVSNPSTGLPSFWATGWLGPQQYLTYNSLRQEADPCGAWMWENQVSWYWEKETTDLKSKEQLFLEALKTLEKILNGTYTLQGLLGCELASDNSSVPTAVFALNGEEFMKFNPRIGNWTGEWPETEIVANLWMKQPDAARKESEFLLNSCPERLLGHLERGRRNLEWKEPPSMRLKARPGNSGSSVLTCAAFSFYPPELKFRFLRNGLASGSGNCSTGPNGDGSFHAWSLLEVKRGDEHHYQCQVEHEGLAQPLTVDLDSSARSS

[21] = biological target: T10, mouse FcRn (His-tagged, Sino Biological …); assay: BLI summary table, mFcRn, pH 5.8; remark: listed apart in the source
[22] = biological target: T10, mouse FcRn (His-tagged, Sino Biological …); assay: BLI summary table, mFcRn, pH 5.8; remark: listed apart in the source
[23] = biological target: T11, mouse FcγRIV (His-tagged, Sino Biological 50036-M08H) (mouse, UniProt A0A0B4J1G0 21-203); assay: BLI summary table, mFcgRIV, pH 7.2
T11 construct: also called mFcγRIV; not shown: the histidine tag (and any linker) of the Sino Biological construct 50036-M08H
T11 sequence: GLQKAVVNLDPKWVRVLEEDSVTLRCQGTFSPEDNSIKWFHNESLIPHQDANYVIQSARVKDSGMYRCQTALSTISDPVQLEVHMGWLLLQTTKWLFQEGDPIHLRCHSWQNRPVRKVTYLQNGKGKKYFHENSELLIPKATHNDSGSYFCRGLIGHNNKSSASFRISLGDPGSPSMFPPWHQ

[24] = biological target: T12, mouse FcγRIIb (His-tagged, Sino Biological 50030-M08H) (mouse, UniProt P08101 30-217); assay: BLI (Octet QK384): His-tagged receptor on anti-Penta-HIS biosensor, antibody as analyte, PBS pH 7.2
T12 construct: also called mFcγRIIb
T12 sequence (looked up): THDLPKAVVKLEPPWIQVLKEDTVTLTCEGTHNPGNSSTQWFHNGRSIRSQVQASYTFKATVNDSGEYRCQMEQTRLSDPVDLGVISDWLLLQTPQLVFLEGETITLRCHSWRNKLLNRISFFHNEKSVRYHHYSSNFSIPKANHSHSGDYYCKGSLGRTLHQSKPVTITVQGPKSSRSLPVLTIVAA

[25] = biological target: T10, mouse FcRn (His-tagged, Sino Biological …); assay: BLI (Octet QK384): His-tagged mFcRn on anti-Penta-HIS biosensor, antibody as analyte, PBS pH 5.8, global 1:1 fit
[26] = biological target: T11, mouse FcγRIV (His-tagged, Sino …); assay: BLI (Octet QK384): His-tagged receptor on anti-Penta-HIS biosensor, antibody as analyte, PBS pH 7.2; kon = ND and KD = ND are printed beside it

B1: anti-VISTA clone V4-C28 IgG1 (antibody, V domains shown)
VH: QVQLQESGPGLVKPSDTLSLTCTVSGYSITSDYTWNWIRQTPGKGLEWIGHITYSGSVSYNPSLRSRVTISRDTSKNQFSLKLSSVTAADTATYSCARALYYPWYFDVWGTGTTVTVSS
VL: EIVLTQSPATLSLSPGERATLSCRASSSVGYIHWYQQKPGQAPRPLIYATSYRATGIPARFSGSGSGTDNTLTISSLEPEDSAVYYCQQWSSYPPITFGGGTKLEVKR
EC50 [1]: 0.217 nM
EC50 [2]: 0.0367 nM
EC50 (read off the curve) [3]: ~0.03 nM
binding result [4]: no binding (tested: log -7.5 M)
binding result [5]: no binding (tested: log -7.5 M)
binding result [6]: no binding (tested: log -7.5 M)
binding result [7]: no binding (tested: log -7.5 M)
binding result [8]: no binding (tested: log -7.5 M)
binding result [9]: no binding (tested: log -7.5 M)
EC50 [10]: 0.0346 nM
EC50 [11]: 0.0365 nM
Kd [12]: < 0.001 nM
koff [12]: < 1e-07 s⁻¹
kon [12]: 507000 M⁻¹ s⁻¹
Kd [13]: 0.17 nM
koff [13]: 8.2e-05 s⁻¹
kon [13]: 475000 M⁻¹ s⁻¹
Kd [14]: 0.489 nM
koff [14]: 0.00025 s⁻¹
kon [14]: 520000 M⁻¹ s⁻¹
EC50 [15]: 0.0015 nM
EC50 [16]: 0.0045 nM
EC50 [17]: 0.053 nM
EC50 [18]: 0.064 nM
binding result [19]: no binding (tested: 500 nM)

B2: 4M2-C12 mIgG2a NQ (antibody)
heavy chain: EVKLVESGPGLVKPSQSLSLTCTVTGYSITSDYAWNWIRQFPGNKLEWMGYITYSGNISYNPSLRSRISITRDTSKNQFFLQLNSVTPEDTATYSCARSLYYPWYFDVWGAGTTVTVSSAKTTAPSVYPLAPVCGDTTGSSVTLGCLVKGYFPEPVTLTWNSGSLSSGVHTFPAVLQSDLYTLSSSVTVTSSTWPSQSITCNVAHPASSTKVDKKIEPRGPTIKPCPPCKCPAPNLLGGPSVFIFPPKIKDVLMISLSPIVTCVVVDVSEDDPDVQISWFVNNVEVHTAQTQTHREDYQSTLRVVSALPIQHQDWMSGKEFKCKVNNKDLPAPIERTISKPKGSVRAPQVYVLPPPEEEMTKKQVTLTCMVTDFMPEDIYVEWTNNGKTELNYKNTEPVLDSDGSYFMYSKLRVEKKNWVERNSYSCSVVHEGLHNHHTTKSFSRTPGK
light chain: DIVITQTPAILSTSPGEKVTMTCRASSSVGYIHWYQQKPGSSPKPWIYATSNLASGVPARFSGSGSGTSNSLTITRVEAEDAATYYCQQWSSYPPITFGGGTKLEVKRADAAPTVSIFPPSSEQLTSGGASVVCFLNNFYPKDINVKWKIDGSERQNGVLNSWTDQDSKDSTYSMSSTLTLTKDEYERHNSYTCEATHKTSTSPIVKSFNRNEC
kon [20]: 180000 M⁻¹ s⁻¹
koff [21]: 0.0075 s⁻¹
Kd [22]: 42.5 nM
koff [23]: 0.348 s⁻¹
binding result [24]: no binding
Kd [25]: 42.5 nM
koff [25]: 0.0075 s⁻¹
kon [25]: 180000 M⁻¹ s⁻¹
koff [26]: 0.348 s⁻¹

Reference: US20250313631A1 (HUMMINGBIRD BIOSCIENCE PTE, published 2025)
